One molecule from paper PMC4996978 (2016) can be followed below.

For assay [1], the target named is T1, AtUBC8 (Arabidopsis thaliana, UniProt P35131 1-148). Kind of assay: ITC.
Assay [2] concerns the target T1, AtUBC8. Kind of assay: ITC. The source holds these as a separate data set. On the technique in general: In ITC the heat of successive injections is recorded.

T1 sequence (P35131 whole entry): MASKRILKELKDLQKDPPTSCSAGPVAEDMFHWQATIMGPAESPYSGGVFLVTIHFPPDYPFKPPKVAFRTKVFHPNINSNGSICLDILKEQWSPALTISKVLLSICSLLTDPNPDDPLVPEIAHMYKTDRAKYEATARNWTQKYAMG

B1: AtMUB3 (natural protein)
chain: MPEEESIDIKFRLYDGSDIGPFRYSAASTVDFLKQRVVSDWPKGKTVVPKGINEVKLISSGKILENNKTVGQCKTPFGDIAGGVIVMHVVVQPSLAKSKTEKKVDKAPKAVICTCTIL
Turning to B1, binding in the assay with AtUBC8 [1] was put at a Kd of 283 nM. In the assay with AtUBC8 [2], the Ka is 3.53e+06 M⁻¹.

For orientation: Kd means the concentration at which binding is half-saturated.
